Peptide text beside a SMILES is read from it.

The target in assay [1] is T1, Bcl-w ΔC29 (Homo sapiens, UniProt Q92843).
T1 sequence (Q92843 1-164 limits assumed): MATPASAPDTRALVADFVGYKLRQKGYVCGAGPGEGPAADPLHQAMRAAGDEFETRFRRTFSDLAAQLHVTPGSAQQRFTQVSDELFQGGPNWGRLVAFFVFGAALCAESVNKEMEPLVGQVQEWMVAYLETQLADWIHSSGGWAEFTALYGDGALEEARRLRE
Put plainly: Alphascreen GST competition assay with biotinylated Bim BH3-26 peptide. The class given is binding. Particulars: for binding affinity for Bcl-w ΔC29 compared to the linear 16-mer, in words: Examples 8 and 9; for decrease in binding affinity: relative to linear 16-mer.

For assay [2], the target named is GST tagged Bcl w delta C29 protein (UniProt Q92843). In words: competition assay; competitor: biotinylated Bim BH3 peptide.
Assay [3] has the same target. In words: competition assay; compared with the linear 16-mer.

In the case of `CC[C@H](C)[C@H](NC(C)=O)C(=O)N[C@@H](CCCNC(=N)N)C(=O)N[C@H](C(=O)N[C@@H](C)C(=O)N[C@@H](CCC(N)=O)C(=O)N[C@@H](CCC(=O)O)C(=O)N[C@@H](CC(C)C)C(=O)N[C@@H](CCCNC(=N)N)C(=O)N[C@@H](CCCNC(=N)N)C(=O)N[C@H](C(=O)NCC(=O)N[C@@H](CC(=O)O)C(=O)N[C@@H](CCC(=O)O)C(=O)N[C@@H](Cc1ccccc1)C(=O)N[C@@H](CC(N)=O)C(=O)N[C@@H](C)C(N)=O)[C@@H](C)CC)[C@@H](C)CC` [Q] (Ac-IRIAQELRRIGDEFNA-NH2), the “binding affinity for Bcl-w ΔC29 compared to the linear 16-mer, in words” value in assay [1] is recorded as “drop in binding”. Take `CC[C@H](C)[C@H](NC(C)=O)C(=O)N[C@@H](Cc1ccccc1)C(=O)N[C@H](C(=O)N[C@@H](C)C(=O)N[C@@H](CCC(N)=O)C(=O)N[C@@H](CCC(=O)O)C(=O)N[C@@H](CC(C)C)C(=O)N[C@@H](CCCNC(=N)N)C(=O)N[C@@H](CCCNC(=N)N)C(=O)N[C@H](C(=O)NCC(=O)N[C@@H](CC(=O)O)C(=O)N[C@@H](CCC(=O)O)C(=O)N[C@@H](Cc1ccccc1)C(=O)N[C@@H](CC(N)=O)C(=O)N[C@@H](C)C(N)=O)[C@@H](C)CC)[C@@H](C)CC` [N] (Ac-IFIAQELRRIGDEFNA-NH2): the “binding affinity for Bcl-w ΔC29 compared to the linear 16-mer, in words” value in assay [1] is listed as “drop in binding”. On the same count and under the same terms, under `CC[C@H](C)[C@H](NC(=O)[C@H](CCCNC(=N)N)NC(=O)[C@H](CCCNC(=N)N)NC(=O)[C@H](CC(C)C)NC(=O)[C@H](CCC(=O)O)NC(=O)[C@H](CCC(N)=O)NC(=O)[C@H](C)NC(=O)[C@@H](NC(=O)[C@H](Cc1c[nH]c2ccccc12)NC(=O)[C@H](C)NC(C)=O)[C@@H](C)CC)C(=O)NCC(=O)N[C@@H](CC(=O)O)C(=O)N[C@@H](CCC(=O)O)C(=O)N[C@@H](Cc1ccccc1)C(=O)N[C@@H](CC(N)=O)C(=O)N[C@@H](C)C(N)=O` [O, Ac-AWIAQELRRJGDEFNA-NH2] (Ac-AWIAQELRRIGDEFNA-NH2) stands “drop in binding”. `CC[C@H](C)[C@H](NC(C)=O)C(=O)N[C@@H](Cc1c[nH]c2ccccc12)C(=O)N[C@H](C(=O)N[C@@H](C)C(=O)N[C@@H](CCC(N)=O)C(=O)N[C@@H](CCC(=O)O)C(=O)N[C@@H](C)C(=O)N[C@@H](CCCNC(=N)N)C(=O)N[C@@H](CCCNC(=N)N)C(=O)N[C@H](C(=O)NCC(=O)N[C@@H](CC(=O)O)C(=O)N[C@@H](CCC(=O)O)C(=O)N[C@@H](Cc1ccccc1)C(=O)N[C@@H](CC(N)=O)C(=O)N[C@@H](C)C(N)=O)[C@@H](C)CC)[C@@H](C)CC` [Peptide J] (Ac-IWIAQEARRIGDEFNA-NH2): in assay [1], the “decrease in binding affinity” value is “about 1000 fold”. With `CC[C@H](C)[C@H](NC(C)=O)C(=O)N[C@@H](Cc1c[nH]c2ccccc12)C(=O)N[C@H](C(=O)N[C@@H](C)C(=O)N[C@@H](CCC(N)=O)C(=O)N[C@@H](CCC(=O)O)C(=O)N[C@@H](CC(C)C)C(=O)N[C@@H](CCCNC(=N)N)C(=O)N[C@@H](CCCNC(=N)N)C(=O)N[C@H](C(=O)NCC(=O)N[C@@H](CC(=O)O)C(=O)N[C@@H](CCC(=O)O)C(=O)N[C@@H](Cc1ccccc1)C(=O)N[C@@H](C)C(=O)N[C@@H](C)C(N)=O)[C@@H](C)CC)[C@@H](C)CC` [Peptide S] (Ac-IWIAQELRRIGDEFAA-NH2), in assay [1], the “binding affinity for Bcl-w ΔC29 compared to the linear 16-mer, in words” value is on record as “only slight, if any, loss of binding affinity”. A word on the IC50: it is the point on the concentration scale where inhibition reaches its midpoint. Read a low IC50 as higher potency. Molecule “Peptide G (constrained) Ac-QAIAQZLRRIGDZFNA-NH2” showed an IC50 in assay [2] of 2.4 nM. With `CC[C@H](C)[C@H](NC(C)=O)C(=O)N[C@@H](C)C(=O)N[C@H](C(=O)N[C@@H](C)C(=O)N[C@@H](CCC(N)=O)C(=O)N[C@@H](CCC(=O)O)C(=O)N[C@@H](CC(C)C)C(=O)N[C@@H](CCCNC(=N)N)C(=O)N[C@@H](CCCNC(=N)N)C(=O)N[C@H](C(=O)NCC(=O)N[C@@H](CC(=O)O)C(=O)N[C@@H](CCC(=O)O)C(=O)N[C@@H](Cc1ccccc1)C(=O)N[C@@H](CC(N)=O)C(=O)N[C@@H](C)C(N)=O)[C@@H](C)CC)[C@@H](C)CC` [P] (Ac-IAIAQELRRIGDEFNA-NH2), in assay [1], the “binding affinity for Bcl-w ΔC29 compared to the linear 16-mer, in words” value is “drop in binding”. Consider `CC[C@H](C)[C@H](NC(C)=O)C(=O)N[C@@H](Cc1c[nH]c2ccccc12)C(=O)N[C@H](C(=O)N[C@@H](C)C(=O)N[C@@H](CCC(N)=O)C(=O)N[C@@H](CCC(=O)O)C(=O)N[C@@H](CC(C)C)C(=O)N[C@@H](CCCNC(=N)N)C(=O)N[C@@H](CCCNC(=N)N)C(=O)N[C@@H](C)C(=O)NCC(=O)N[C@@H](CC(=O)O)C(=O)N[C@@H](CCC(=O)O)C(=O)N[C@@H](Cc1ccccc1)C(=O)N[C@@H](CC(N)=O)C(=O)N[C@@H](C)C(N)=O)[C@@H](C)CC` [Peptide K] (Ac-IWIAQELRRAGDEFNA-NH2), for which the “decrease in binding affinity” value in assay [1] worked out at 3 fold. With “Peptide T (linear) Ac-IWIAQELCitCitIGDEFNA-NH2”, the 50% inhibitory concentration (IC50) in assay [2] came to 20 nM. For `CC[C@H](C)[C@H](NC(C)=O)C(=O)N[C@@H](Cc1c[nH]c2ccccc12)C(=O)N[C@@H](C)C(=O)N[C@@H](C)C(=O)N[C@@H](CCC(N)=O)C(=O)N[C@@H](CCC(=O)O)C(=O)N[C@@H](CC(C)C)C(=O)N[C@@H](CCCNC(=N)N)C(=O)N[C@@H](CCCNC(=N)N)C(=O)N[C@H](C(=O)NCC(=O)N[C@@H](CC(=O)O)C(=O)N[C@@H](CCC(=O)O)C(=O)N[C@@H](Cc1ccccc1)C(=O)N[C@@H](CC(N)=O)C(=O)N[C@@H](C)C(N)=O)[C@@H](C)CC` [Peptide I] (Ac-IWAAQELRRIGDEFNA-NH2), in assay [1], the “binding affinity for Bcl-w ΔC29 compared to the linear 16-mer, in words” value is “slight decrease in binding affinity” and the “decrease in binding affinity” value came to 100 fold. Regarding `CC[C@H](C)[C@H](NC(C)=O)C(=O)N[C@@H](Cc1c[nH]c2ccccc12)C(=O)N[C@H](C(=O)N[C@@H](C)C(=O)N[C@@H](CCC(N)=O)C(=O)N[C@@H](CCC(=O)O)C(=O)N[C@@H](CC(C)C)C(=O)N[C@@H](CCCNC(=N)N)C(=O)N[C@@H](CCCNC(=N)N)C(=O)N[C@H](C(=O)NCC(=O)N[C@@H](CC(=O)O)C(=O)N[C@@H](CCC(=O)O)C(=O)N[C@@H](Cc1ccccc1)C(=O)N[C@@H](CC(N)=O)C(=O)N[C@@H](CC(N)=O)C(N)=O)[C@@H](C)CC)[C@@H](C)CC` [Peptide U] (Ac-IWIAQELRRIGDEFNN-NH2), the “decrease in binding affinity” value in assay [1] was “two-fold”. On the same count and under the same terms, under `CC[C@H](C)[C@H](NC(C)=O)C(=O)N[C@@H](Cc1c[nH]c2ccccc12)C(=O)N[C@H](C(=O)N[C@@H](C)C(=O)N[C@@H](CCC(N)=O)C(=O)N[C@@H](CCC(=O)O)C(=O)N[C@@H](CC(C)C)C(=O)N[C@@H](CCCNC(=N)N)C(=O)N[C@@H](CCCNC(=N)N)C(=O)N[C@H](C(=O)NCC(=O)N[C@@H](CC(=O)O)C(=O)N[C@@H](CCC(=O)O)C(=O)N[C@@H](C)C(=O)N[C@@H](CC(N)=O)C(=O)N[C@@H](C)C(N)=O)[C@@H](C)CC)[C@@H](C)CC` [Peptide L] (Ac-IWIAQELRRIGDEANA-NH2) stands 1,000 fold.

B1: Peptide R (linear) Ac-…-NH2 (peptide)
peptide: Ac-IWIAQELRRIGDEFAN-NH2
Turning to B1, the IC50 in assay [2] is 12 nM. The molecule further displayed a fold decrease in affinity against the linear 16-mer in assay [3] of 4 to 5 fold.

B2: Bmf peptide Ac-…-NH2 (peptide)
peptide: Ac-VQIARKLQAIADQFHR-NH2
Consider B2, for which the IC50 in assay [2] is 0.25 nM.

B3: Peptide J (linear) Ac-…-NH2 (peptide)
peptide: Ac-IWIAQEARRIGDEFNA-NH2
As to B3, the IC50 in assay [2] was 3700 nM. In addition, the fold decrease in binding affinity against the linear 16-mer in assay [3] came to 1000 fold.

B4: Peptide K (linear) Ac-…-NH2 (peptide)
peptide: Ac-IWIAQELRRAGDEFNA-NH2
For the molecule B4, in assay [2], the IC50 came out at 7.3 nM. In assay [3], this molecule yielded a fold decrease in binding affinity against the linear 16-mer of 3 fold.

B5: Peptide N (linear) Ac-…-NH2 (peptide)
peptide: Ac-IFIAQELRRIGDEFNA-NH2
In assay [2], B5 displayed a half-maximal inhibitory concentration (IC50) of 11 nM.

B6: Puma peptide Ac-…-NH2 (peptide)
peptide: Ac-REIGAQLRRMADDLNA-NH2
In the case of B6, in assay [2], the IC50 was determined as 52 nM.

B7: Peptide L (linear) Ac-…-NH2 (peptide)
peptide: Ac-IWIAQELRRIGDEANA-NH2
In turn, B7 returned an IC50 in assay [2] of 3500 nM. For the same molecule, the fold decrease in binding affinity against the linear 16-mer in assay [3] was 1000 fold.

B8: Peptide P (linear) Ac-…-NH2 (peptide)
peptide: Ac-IAIAQELRRIGDEFNA-NH2
In the case of B8, the half-inhibitory concentration (IC50) in assay [2] was 42 nM.

B9: Peptide S (linear) Ac-…-NH2 (peptide)
peptide: Ac-IWIAQELRRIGDEFAA-NH2
B9: in assay [2], the IC50 worked out at 3.3 nM.

B10: Peptide U (linear) Ac-…-NH2 (peptide)
peptide: Ac-IWIAQELRRIGDEFNN-NH2
The molecule B10 came in with an IC50 in assay [2] of 5.8 nM. The molecule also yielded a fold loss of binding affinity against the linear 16-mer in assay [3] of 2 fold.

B11: Peptide Q (linear) Ac-…-NH2 (peptide)
peptide: Ac-IRIAQELRRIGDEFNA-NH2
Molecule B11 registered an IC50 in assay [2] of 17 nM.

B12: Peptide M (linear) Ac-…-NH2 (peptide)
peptide: Ac-IWAAQEARRAGDEANA-NH2
The molecule B12 returned an IC50 in assay [2] of 64000 nM. In assay [3], this molecule gave a fold decrease in binding affinity against the linear 16-mer of 25000 fold.

B13: Peptide H (linear) Ac-…-NH2 (peptide)
peptide: Ac-IWIAQQLRRIGDQFNA-NH2
B13 registered an IC50 in assay [2] of 3.3 nM.

B14: Peptide I (linear) Ac-…-NH2 (peptide)
peptide: Ac-IWAAQELRRIGDEFNA-NH2
B14 came in with an IC50 in assay [2] of 360 nM. Moreover, the fold decrease in binding affinity against the linear 16-mer in assay [3] worked out at 100 fold.

The record behind these values is patent US20070197430A1, “Conjugates And Therapeutic Uses Thereof” (priority 2004, published 2007).
